Assay results published in patent US20220365100A1 (Janssen / Centocor, published 2022).
Where a chain is given by its changes, count along the chain named. Values belong to the binder of their own block, whether it stands above or below them.

Legend:
[1] = molecular target: T1, recombinant IL-17 (human IL-17, interleukin 17A) (human, UniProt Q16552 24-155); experiment: sandwich ELISA: AF-317 coated as capture, mAb4538 as detection, IL-17A titrated
T1 construct: Serial dilutions of recombinant IL-17 from 1 ng/ml in ELISA; also called IL-17A; CTLA8

[2] = molecular target: T1, recombinant IL-17 (human IL-17, …); experiment: competition in sandwich ELISA: IL-17A mixed with 10ug/ml modulator, free IL-17A detected with DuoSet DY317 (MAB317 capture, BAF317 detection)

T1 sequence (Q16552 24-155 limits assumed): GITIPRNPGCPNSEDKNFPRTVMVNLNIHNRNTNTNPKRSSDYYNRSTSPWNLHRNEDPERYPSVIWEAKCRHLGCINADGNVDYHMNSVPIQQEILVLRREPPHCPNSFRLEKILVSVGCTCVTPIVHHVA

binding result [1]: binds
B1: mAb4538 (antibody, human IgG1, lambda, V domains shown)
VH: QVQLQQSGPGLVKPSQTLSLTCAISGDSVSSSSAAWGWIRQSPSRGLEWLGRISYRSKWYNDYAVSVKSRITINPDTSKNQFSLQLNSVTPEDTAVYYCAREVDSMYYSYFDIWGQGTLVTVSS
VL: EIVLTQSPATLSLSPGERATLSCRASQNVWAFYLAWYQQKPGQAPRLLIYGASNRATGIPARFSGSGSGTDFTLTISSLEPEDFAVYYCQQYRSTLSLTFGQGTKVEIKG
notes: also called detection agent; anti-IL-17 antibody from Janssen Biotech, Inc

binding result [2]: binds
B2: mAb732 (antibody, human IgG1, lambda, V domains shown)
VH: B1 VH
VL: B1 VL with Q90T, R93Y, T95S, L96P
notes: also called LM modulator of IL-17

binding result [2]: binds
B3: mAb7024 (antibody, human IgG1, lambda, V domains shown)
VH: QVQLVQSGAEVKKPGSSVKVSCKASGGTFSSYAISWVRQAPGQGLEWMGSIIPWFGTTNYAQKFQGRVTITADESTSTAYMELSSLRSEDTAVYYCARDSEYYFDHWGQGTLVTVSS
VL: DIQMTQSPSSVSASVGDRVTITCRASQGISNWLNWYQQKPGKAPKLLIYAASSLQSGVPSRFSGSGSGTDFTLTISSLQPEDFATYYCQQYSDDPTFGQGTKVEIKG
notes: as for B2
